Values quoted from earlier work, collected in PMC5009806.

Molecular target: amyloid beta (Homo sapiens) (UniProt P05067)
Assay: SPR

In the case of Gantenerumab, the Kd is listed as 0.6 nM.
